In general, stoichiometry N refers to the number of molecules, sites or subunits per partner or assembly.

Experiment [1] has as its target HBc protein (core protein) of hepatitis B virus genotype D (hepatitis B virus genotype D). The experiment is described as follows: reassociation by dialysis, tested by electron microscopy, DLS, SDS-PAGE and NAGE; purified HBc dimers dialysed from dissociation buffer against PBS at +4 °C overnight; dimers to VLPs (empty capsids).
The target is the same in experiment [2]. The experiment is described as follows: SEC; VLPs incubated in GuHCl- and LiCl-containing dissociation buffer, +4 °C, 16 h; debris removed; supernatant on a Superose6 or Superdex200 column in dissociation buffer; capsid to dimers, the dimer stays. A general note: SEC sorts molecules by how far they enter the pores of the column.
The target in experiment [3] is HBc protein (core protein) of hepatitis B virus genotype F (hepatitis B virus genotype F). The experiment is described as follows: reassociation by dialysis, tested by electron microscopy, DLS, SDS-PAGE and NAGE; purified HBc dimers dialysed from dissociation buffer against PBS at +4 °C overnight; dimers to VLPs (empty capsids).
Experiment [4] has the same target. The experiment is described as follows: SEC; VLPs incubated in GuHCl- and LiCl-containing dissociation buffer, +4 °C, 16 h; debris removed; supernatant on a Superose6 or Superdex200 column in dissociation buffer; capsid to dimers, the dimer stays.
For experiment [5], the target named is HBc protein (core protein) of hepatitis B virus genotype G (hepatitis B virus genotype G). The experiment is described as follows: reassociation by dialysis, tested by electron microscopy, DLS, SDS-PAGE and NAGE; purified HBc dimers dialysed from dissociation buffer against PBS at +4 °C overnight; dimers to VLPs (empty capsids).
For experiment [6] the target is unchanged. Kind of experiment: SEC; VLPs incubated in GuHCl- and LiCl-containing dissociation buffer, +4 °C, 16 h; debris removed; supernatant on a Superose6 or Superdex200 column in dissociation buffer; capsid to dimers, the dimer stays.

Regarding “HBc protein (core protein) of hepatitis B virus genotype D (natural protein)”, in experiment [1], the Reassociated dimers (percent of dimers reassociated in VLPs) came to 80%. In addition, in experiment [2], the Dimer content came to 30%, the percent of the treated soluble VLPs as dimers was 70% and the stoichiometry N turned out to be 2.
As to “HBc protein (core protein) of hepatitis B virus genotype F (natural protein)”, in experiment [3], the Reassociated dimers (percent of dimers reassociated in VLPs) was found to be 80%. In experiment [4], the Dimer content came to 30%, the percent of the treated soluble VLPs as dimers amounted to 40% and the stoichiometry N is 2.
The substance “HBc protein (core protein) of hepatitis B virus genotype G (natural protein)” registered a Reassociated dimers (percent of dimers reassociated in VLPs) in experiment [5] of 90%. In experiment [6], this substance returned a Dimer content of 30%, a percent of the treated soluble VLPs as dimers of 80% and a stoichiometry N of 2.

The record behind these values is paper PMC7912224.
